The assay deals with T1, non-activatable Factor X (FXn) (Homo sapiens (Human), UniProt P00742 41-488, single biotin on the C-terminal BioTag).
T1 construct: also called BIIB-FX-015
The experiment in a line: BLI; class meaning: paragraph 285.

B1: BIIB-12-891 (antibody, V domains shown)
VH: QVQLVQSGAEVKKPGASVKVSCKASGYTFTSYYIHWVRQAPGQGLEWMGIINPSGGSTSYAQKFQGRVTMTRDTSTSTVYMELSSLRSEDTAVYYCARASIYRGLGAFDIWGQGTMVTVSS
VL: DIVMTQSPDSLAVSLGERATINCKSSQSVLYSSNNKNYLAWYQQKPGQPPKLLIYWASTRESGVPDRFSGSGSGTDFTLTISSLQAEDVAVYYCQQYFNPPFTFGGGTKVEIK
notes: IgG
As to B1, the binding result is “binds”.

B2: BIIB-12-892 (antibody, V domains shown)
VH: QVQLVQSGAEVKKPGASVKVSCKASGYTFTSYYMHWVRQAPGQGLEWMGIINPSGGSTSYAQKFQGRVTMTRDTSTSTVYMELSSLRSEDTAVYYCARGLGRRTPTAFDIWGQGTMVTVSS
VL: EIVLTQSPATLSLSPGERATLSCRASQSVSSYLAWYQQKPGQAPRLLIYDASNRATGIPARFSGSGSGTDFTLTISSLEPEDFAVYYCQQRLNLPLTFGGGTKVEIK
notes: IgG
Take B2: the binding result was “binds”.

B3: BIIB-12-899 (antibody, V domains shown)
VH: QVQLVQSGAEVKKPGASVKVSCKASGYTFTSYYMHWVRQAPGQGLEWMGIINPSGGSTSYAQKFQGRVTMTRDTSTSTVYMELSSLRSEDTAVYYCARGPRTSSPLYFDLWGRGTLVTVSS
VL: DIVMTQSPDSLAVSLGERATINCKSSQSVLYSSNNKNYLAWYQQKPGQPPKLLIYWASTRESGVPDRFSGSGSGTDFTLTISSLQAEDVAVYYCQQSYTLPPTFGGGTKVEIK
notes: IgG
Regarding B3, the binding result is “binds”.

B4: BIIB-12-906 (antibody, V domains shown)
VH: QVQLVESGGGVVQPGRSLRLSCAASGFTFSSYGMHWVRQAPGKGLEWVAVISYDGSNKYYADSVKGRFTISRDNSKNTLYLQMNSLRAEDTAVYYCAKSSRHFDYWGRGTLVTVSS
VL: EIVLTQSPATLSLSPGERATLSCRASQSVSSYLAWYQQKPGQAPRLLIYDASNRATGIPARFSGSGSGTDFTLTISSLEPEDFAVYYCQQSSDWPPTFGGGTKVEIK
notes: IgG
As to B4, the binding result was “binds”.

B5: BIIB-12-1311 (antibody, V domains shown)
VH: QVQLVESGGGVVQPGRSLRLSCAASGFTFSSYGMHWVRQAPGKGLEWVAVISYDGSNKYYADSVKGRFTISRDNSKNTLYLQMNSLRAEDTAVYYCAKGRHYWAVWGQGTLVTVSS
VL: EIVLTQSPATLSLSPGERATLSCRASQSVSSYLAWYQQKPGQAPRLLIYDASNRATGIPARFSGSGSGTDFTLTISSLEPEDFAVYYCQQASNLPPTFGGGTKVEIK
notes: IgG
On to B5, for which the binding result is recorded as “binds”.

B6: BIIB-12-904 (antibody, V domains shown)
VH: QVQLVESGGGVVQPGRSLRLSCAASGFTFSSYGMHWVRQAPGKGLEWVAVISYDGSNKYYADSVKGRFTISRDNSKNTLYLQMNSLRAEDTAVYYCARGSGRSGYHYWGQGTLVTVSS
VL: EIVMTQSPATLSVSPGERATLSCRASQSVSSNLAWYQQKPGQAPRLLIYGASTRATGIPARFSGSGSGTEFTLTISSLQSEDFAVYYCQQAFNWPPTFGGGTKVEIK
notes: IgG
Take B6: the binding result is recorded as “binds”.

B7: BIIB-12-1299 (antibody, V domains shown)
VH: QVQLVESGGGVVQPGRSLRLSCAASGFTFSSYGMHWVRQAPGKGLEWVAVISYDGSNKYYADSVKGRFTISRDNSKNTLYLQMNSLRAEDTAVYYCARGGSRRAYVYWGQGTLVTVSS
VL: EIVMTQSPATLSVSPGERATLSCRASQSVSSNLAWYQQKPGQAPRLLIYGASTRATGIPARFSGSGSGTEFTLTISSLQSEDFAVYYCQQLNNFPITFGGGTKVEIK
notes: IgG
In the case of B7, the binding result was “binds”.

B8: BIIB-12-912 (antibody, V domains shown)
VH: QVQLVESGGGVVQPGRSLRLSCAASGFTFSSYGMHWVRQAPGKGLEWVAVISYDGSNKYYADSVKGRFTISRDNSKNTLYLQMNSLRAEDTAVYYCAKSGGRYGYDIWGQGTMVTVSS
VL: EIVMTQSPATLSVSPGERATLSCRASQSVSSNLAWYQQKPGQAPRLLIYGASTRATGIPARFSGSGSGTEFTLTISSLQSEDFAVYYCQQFHNFPPTFGGGTKVEIK
notes: IgG
For B8, the binding result was “binds”.

B9: BIIB-12-895 (antibody, V domains shown)
VH: QVQLVQSGAEVKKPGASVKVSCKASGYTFTSYYMHWVRQAPGQGLEWMGIINPSGGSTSYAQKFQGRVTMTRDTSTSTVYMELSSLRSEDTAVYYCARGGGYKSRGIDYWGQGTLVTVSS
VL: DIQMTQSPSSVSASVGDRVTITCRASQGISSWLAWYQQKPGKAPKLLIYAASSLQSGVPSRFSGSGSGTDFTLTISSLQPEDFATYYCQQASSFPFTFGGGTKVEI
notes: IgG
As for B9, the binding result is recorded as “binds”.

B10: BIIB-12-903 (antibody, V domains shown)
VH: QVQLVQSGAEVKKPGASVKVSCKASGYTFTSYYMHWVRQAPGQGLEWMGIINPSGGSTSYAQKFQGRVTMTRDTSTSTVYMELSSLRSEDTAVYYCARDLGYTAGAFGYWGQGTLVTVSS
VL: EIVLTQSPATLSLSPGERATLSCRASQSVSSYLAWYQQKPGQAPRLLIYDASNRATGIPARFSGSGSGTDFTLTISSLEPEDFAVYYCQQRANWPPTFGGGTKVEIK
notes: IgG
B10: the binding result is listed as “binds”.

B11: BIIB-12-902 (antibody, V domains shown)
VH: QVQLVQSGAEVKKPGASVKVSCKASGYTFTSYYMHWVRQAPGQGLEWMGIINPGGGSTSYAQKFQGRVTMTRDTSTSTVYMELSSLRSEDTAVYYCARGGPRRAYSWYFDYWGQGTLVTVSS
VL: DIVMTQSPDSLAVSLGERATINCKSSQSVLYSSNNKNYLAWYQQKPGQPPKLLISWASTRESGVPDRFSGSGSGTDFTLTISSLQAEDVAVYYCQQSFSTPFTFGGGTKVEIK
notes: IgG
Turning to B11, the binding result is recorded as “binds”.

B12: BIIB-12-900 (antibody, V domains shown)
VH: QVQLVQSGAEVKKPGASVKVSCKASGYTFTSYYMHWVRQAPGQGLEWMGIINPGGGSTSYAQKFQGRVTMTRDTSTSTVYMELSSLRSEDTAVYYCARSGGMYDRELGMDVWGQGTTVTVSS
VL: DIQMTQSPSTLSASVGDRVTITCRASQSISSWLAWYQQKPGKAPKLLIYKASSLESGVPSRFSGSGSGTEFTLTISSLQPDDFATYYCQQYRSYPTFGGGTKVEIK
notes: IgG
For B12, the binding result is “binds”.

B13: BIIB-12-901 (antibody, V domains shown)
VH: QVQLVQSGAEVKKPGASVKVSCKASGYTFTSYYMSWVRQAPGQGLEWMGIINPSGGSTSYAQKFQGRVTMTRDTSTSTVYMELSSLRSEDTAVYYCARSRPRRPSPYGMDVWGQGTTVTVSS
VL: EIVLTQSPATLSLSPGERATLSCRASQSVSSYLAWYQQKPGQAPRLLIYDASNRATGIPARFSGSGSGTDFTLTISSLEPEDFAVYYCQQSANFPFTFGGGTKVEIK
notes: IgG
As for B13, the binding result is “binds”.

B14: BIIB-12-893 (antibody, V domains shown)
VH: QVQLVQSGAEVKKPGASVKVSCKASGYTFTSYYMVWVRQAPGQGLEWMGIINPSGGSTSYAQKFQGRVTMTRDTSTSTVYMELSSLRSEDTAVYYCARDPGRRQYSFYGMDVWGQGTTVTVSS
VL: DIQLTQSPSSVSASVGDRVTITCRASQGISSWLAWYQQKPGKAPKLLIYAASSLQSGVPSRFSGSGSGTDFTLTISSLQPEDFATYYCQQAAAFPFTFGGGTKVEIK
notes: IgG
Consider B14, for which the binding result is “binds”.

B15: BIIB-12-896 (antibody, V domains shown)
VH: QVQLVQSGAEVKKPGASVKVSCKASGYTFTSYYMHWVRQAPGQGLEWMGIINPSGGSTSYAQKFQGRVTMTRDTSTSTVYMELSSLRSEDTAVYYCARGLGQQRRGFDIWGQGTLVTVSS
VL: DIQMTQSPSSVSASVGDRVTITCRASQGISSWLAWYQQKPGKAPKLLIYAASSLQSGVPSRFSGSGSGTDFTLTISSLQPEDFATYYCQQANSFPFTFGGGTKVEIK
notes: IgG
As to B15, the binding result is “binds”.

B16: BIIB-12-898 (antibody, V domains shown)
VH: QVQLVQSGAEVKKPGASVKVSCKASGYTFTSYYMHWVRQAPGQGLEWMGIINPSGGSTTYAQKFQGRVTMTRDTSTSTVYMELSSLRSEDTAVYYCARGDRMLRAFDPWGQGTLVTVSS
VL: DIQLTQSPSTLSASVGDRVTITCRASQAISSWLAWYQQKPGKAPKLLIYDASSLESGVPSRFSGSGSGTEFTLTISSLQPDDFATYYCQQVNRFPFTFGGGTKVEIK
notes: IgG
As for B16, the binding result was “binds”.

B17: BIIB-12-1290 (antibody, V domains shown)
VH: QVQLVQSGAEVKKPGASVKVSCKASGYTFTSYYMHWVRQAPGQGLEWMGIINPGGGSTSYAQKFQGRVTMTRDTSTSTVYMELSSLRSEDTAVYYCAREGGRYVRGMDVWGQGTTVTVSS
VL: DIQMTQSPSSVSASVGDRVTITCRASQGISSWLAWYQQKPGKAPKLLIYAASSLQSGVPSRFSGSGSGTDFTLTISSLQPEDFATYYCQQGFSFPFTFGGGTKVEIK
notes: IgG
Turning to B17, the binding result is given as “binds”.

B18: BIIB-12-1293 (antibody, V domains shown)
VH: QVQLVQSGAEVKKPGASVKVSCKASGYTFTSYYMHWVRQAPGQGLEWMGIINPSGGSTSYAQKFQGRVTMTRDTSTSTVYMELSSLRSEDTAVYYCARGSGGKHRGLDVWGQGTMVTVSS
VL: DIQMTQSPSSVSASVGDRVTITCRASQGISSWLAWYQQKPGKAPKLLIYAASSLQSGVPSRFSGSGSGTDFTLTISSLQPEDFATYYCQQANIFPFTFGGGTKVEIK
notes: IgG
Take B18: the binding result is reported as “binds”.

B19: BIIB-12-1294 (antibody, V domains shown)
VH: QVQLVQSGAEVKKPGASVKVSCKASGYTFTSYYMHWVRQAPGQGLEWMGIINPSGGSTSYAQKFQGRVTMTRDTSTSTVYMELSSLRSEDTAVYYCARGTRSSRDMDVWGQGTTVTVSS
VL: DIQMTQSPSTLSASVGDRVTITCRASQSISSWLAWYQQKPGKAPKLLIYKASSLESGVPSRFSGSGSGTEFTLTISSLQPDDFATYYCQQVNTFPFTFGGGTKVEIK
notes: IgG
Regarding B19, the binding result is “binds”.

B20: BIIB-12-907 (antibody, V domains shown)
VH: QVQLQESGPGLVKPSETLSLTCAVSGYSISSGYYWAWIRQPPGKGLEWIGSIYHSGSTYYNPSLKSRVTISVDTSKNQFSLKLSSVTAADTAVYYCARESGMSGAAYWGQGTLVTVSS
VL: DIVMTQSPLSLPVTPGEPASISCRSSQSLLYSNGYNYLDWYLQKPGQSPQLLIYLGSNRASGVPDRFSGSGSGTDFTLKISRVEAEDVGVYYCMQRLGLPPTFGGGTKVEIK
notes: IgG
B20: the binding result is given as “binds”.

B21: BIIB-12-897 (antibody, V domains shown)
VH: QLQLQESGPGLVKPSETLSLTCTVSGGSISSSSYYWGWIRQPPGKGLEWIGSIYYSGSTYYNPSLKSRVTISVDTSKNQFSLKLSSVTAADTAVYYCAREGRTYYGGWFDPWGQGTLVTVSS
VL: EIVLTQSPGTLSLSPGERATLSCRASQSVSSSYLAWYQQKPGQAPRLLIYGASSRATGIPDRFSGSGSGTDFTLTISRLEPEDFAVYYCQQDGNYPYTFGGGTKVEIK
notes: IgG
Regarding B21, the binding result is given as “binds”.

B22: BIIB-12-905 (antibody, V domains shown)
VH: QVQLVESGGGVVQPGRSLRLSCAASGFTFSSYGMHWVRQAPGKGLEWVAVISYDGSNKYYADSVKGRFTISRDNSKNTLYLQMNSLRAEDTAVYYCAKGGTYLDTWGQGTLVTVSS
VL: EIVLTQSPGTLSLSPGERATLSCRASQSVRSSYLAWYQQKPGQAPRLLIYGASSRATGIPDRFSGSGSGTDFTLTISRLEPEDFAVYYCQQYGRFPPTFGGGTKVEIK
notes: IgG
For B22, the binding result is recorded as “binds”.

B23: BIIB-12-928 (antibody, V domains shown)
VH: QVQLVEFGVGVVQPGRSLRLSCAASGFTFSSYGMHWVRQAPGKGLEWVAVISYDGSNKYYADSVKGRFTISRDNSKNTLYLQMNSLRAEDTAVYYCAKGGTYLDTWGQGTLVTVSS
VL: EIVLTQSPGTLSLSPGERATLSCRASQSVRSSYLAWYQQKPGQAPRLLIYGASSRATGIPDRFSGSGSGTDFTLTISRLEPEDFAVYYCQQYVRFPLTFGGGTKVEIK
notes: IgG
B23: the binding result is “binds”.

The values above are taken from US20230192896A1 (BIOVERATIV THERAPEUTICS, published 2023).
